Three molecules from patent US20230129812A1, “COMPOSITIONS AND METHODS FOR TREATING PULMONARY HYPERTENSION” (Acceleron Pharma Inc., priority 2020, published 2023) can be followed below.

Assay [1] has as its target T1, GDF11 (Homo sapiens, UniProt O95390).
T1 sequence (O95390 299-407): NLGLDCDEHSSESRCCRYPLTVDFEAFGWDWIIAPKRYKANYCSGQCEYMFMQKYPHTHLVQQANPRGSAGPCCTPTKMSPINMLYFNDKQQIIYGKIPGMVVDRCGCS
Put plainly: Biacore ligand affinity of ActRIIB-hFc forms, steady-state affinity fit. Conditions: Table 12; Kd by steady-state affinity fit; read-out: GDF11 (Kd e−11). In kind it is binding. Here is the method: (§1) Affinities of several ligands for ActRIIB(25-131)-hFc and its full-length counterpart ActRIIB(20-134)-hFc were evaluated in vitro with a Biacore™ instrument, and the results are summarized in Table 8 below. Kd values were obtained by steady-state affinity fit due to very rapid association and dissociation of the complex, which prevented accurate determination of kon and koff. ActRIIB(25-131)-hFc bound, for example, activin A, activin B, and GDF11 with high affinity.
(§2) The affinity of ActRIIB variants and other ActRIIB-hFc proteins for several ligands was evaluated in vitro with a Biacore™ instrument. Kd values were obtained by steady-state affinity fit due to the very rapid association and dissociation of the complex, which prevented accurate determination of kon and koff.
(In general: In SPR one partner is held on a chip, and binding of the other changes the refractive index at the surface.)

Assay [2] concerns the target T2, activin A (Homo sapiens, UniProt P08476).
T2 sequence (P08476 311-426): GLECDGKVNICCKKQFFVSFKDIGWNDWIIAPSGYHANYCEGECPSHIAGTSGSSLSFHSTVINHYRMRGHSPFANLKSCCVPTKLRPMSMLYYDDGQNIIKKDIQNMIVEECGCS
The description is as above. In kind it is binding. The following applies: Table 12; Kd by steady-state affinity fit; read-out: Activin A (Kd e−11). The method, then:
as §1, §2

The target in assay [3] is T3, activin B (Homo sapiens, UniProt P09529).
T3 sequence (P09529 293-407): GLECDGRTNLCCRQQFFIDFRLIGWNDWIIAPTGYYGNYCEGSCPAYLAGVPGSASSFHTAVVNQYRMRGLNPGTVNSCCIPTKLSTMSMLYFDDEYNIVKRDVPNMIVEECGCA
The description is as above. It counts as binding. Conditions: Table 12; Kd by steady-state affinity fit; read-out: Activin B (Kd e−11). Here is the method:
as §1, §2

Assay [4] addresses T2, activin A. Put plainly: A-204 reporter gene assay, pGL3(CAGA)12 luciferase. In kind it is cell-based. The following applies: for inhibition of activin A signaling: A-204 reporter gene assay. From the text: (§3) An A-204 reporter gene assay was used to evaluate the effects of ActRIIB-Fc proteins and ActRIIB variant Fc fusion polypeptides on signaling by GDF-11 and activin A. Cell line: human rhabdomyosarcoma (derived from muscle). Reporter vector: pGL3(CAGA)12 (described in Dennler et al, 1998, EMBO 17: 3091-3100). The CAGA12 motif is present in TGF-beta responsive genes (e.g., PAI-1 gene), so this vector is of general use for factors signaling through SMADs.
(§4) Day 1: Split A-204 cells into 48-well plate.
(§5) Day 2: A-204 cells transfected with 10 ug pGL3(CAGA)12 or pGL3(CAGA)12(10 ug)+pRLCMV (1 pg) and Fugene.
(§6) Day 3: Add factors (diluted into medium+0.1% BSA). Inhibitors need to be preincubated with factors for 1 hr before adding to cells. Six hrs later, cells were rinsed with PBS and lysed.
(§7) This is followed by a luciferase assay.
(§8) Activity of ActRIIB-Fc proteins and ActRIIB variant Fc fusion polypeptides was tested in a cell-based assay as described above. Some variants were tested in different C-terminal truncation constructs. As discussed above, truncations of five or fifteen amino acids caused reduction in activity. […]
A general note: A reporter such as luciferase makes a cellular process visible.

In assay [5] the target is T4, GDF8 (Homo sapiens, UniProt O14793).
T4 sequence (O14793 267-375): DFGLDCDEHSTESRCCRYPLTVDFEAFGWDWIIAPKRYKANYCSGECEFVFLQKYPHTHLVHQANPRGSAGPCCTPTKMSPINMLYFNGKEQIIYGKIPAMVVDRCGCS
Put plainly: A-204 reporter gene assay, pGL3(CAGA)12 luciferase. It counts as cell-based.
From the text: as §3, §4, §5, §6, §7
As described below, ActRIIB variants were also tested in this assay.
(§9) In addition, an A-204 Reporter Gene Assay was used to evaluate the effects of ALK4-Fc:ActRIIB-Fc heterodimer and ActRIIB-Fc:ActRIIB-Fc homodimer on signaling by activin A, activin B, GDF11, GDF8, BMP10, and BMP9. Cell line: Human Rhabdomyosarcoma (derived from muscle). Reporter vector: pGL3(CAGA)12 (as described in Dennler et al, 1998, EMBO 17: 3091-3100). The CAGA12 motif is present in TGFβ responsive genes (PAI-1 gene), so this vector is of general use for factors signaling through Smads. An exemplary A-204 Reporter Gene Assay is outlined below. • Day 1: Split A-204 cells into 48-well plate. • Day 2: A-204 cells transfected with 10 ug pGL3(CAGA)12 or pGL3(CAGA)12(10 ug)+pRLCMV (1 ug) and Fugene. • Day 3: Add factors (diluted into medium+0.1% BSA). Inhibitors need to be pre-incubated with Factors for about one hr before adding to cells. About six hrs later, cells are rinsed with PBS and then lysed.
(§10) Following the above steps, a Luciferase assay was performed.

Assay [6] deals with T1, GDF11. Briefly: A-204 reporter gene assay, pGL3(CAGA)12 luciferase. The following applies: for inhibition of GDF11 signaling: A-204 reporter gene assay. It counts as cell-based.
From the text: as §3, §4, §5, §6, §7, §8

Assay [7] deals with T1, GDF11. Briefly: Biacore assay, ActRIIB-Fc captured with anti-hFc antibody, ligand injected (Example 8). Conditions: GDF11; Table 10. In kind it is binding. The method, then: (§11) Binding of certain ActRIIB-Fc proteins and ActRIIB variant Fc fusion polypeptides to ligands was tested in a Biacore™ assay.
(§12) The ActRIIB-Fc variants or wild-type protein were captured onto the system using an anti-hFc antibody. Ligands were injected and flowed over the captured receptor proteins.

Assay [8] concerns the target T2, activin A. The assay is described as above. It counts as binding. The following applies: Activin A; Table 10. The method, then:
as §11, §12

For assay [9], the target named is T4, GDF8. The assay is described as above. It counts as binding. Conditions: GDF8; Table 10. Here is the method:
as §11, §12

The target of assay [10] is T5, GDF3 (Homo sapiens, UniProt Q9NR23).
T5 sequence (Q9NR23 251-364): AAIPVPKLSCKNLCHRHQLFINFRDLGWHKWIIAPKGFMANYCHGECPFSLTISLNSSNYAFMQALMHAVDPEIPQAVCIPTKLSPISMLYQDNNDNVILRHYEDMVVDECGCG
Briefly: Biacore ligand binding profile, ALK4-Fc:ActRIIB-Fc heterodimer vs homodimers, anti-Fc capture (Example 13, Table 13). The following applies: ligand GDF3, Table 13. The method, then: (§13) A Biacore™-based binding assay was used to compare ligand binding selectivity of the ALK4-Fc:ActRIIB-Fc heterodimeric complex described above with that of ActRIIB-Fc and ALK4-Fc homodimer complexes. The ALK4-Fc:ActRIeB-Fc heterodimer, […], and ALK4-Fc homodimer were independently captured onto the system using an anti-Fc antibody. Ligands were injected and allowed to flow over the captured receptor protein. Results are summarized in Table 13 below, in which ligand off-rates (kd) most indicative of effective polypeptides are denoted in bold.

Assay [11] concerns the target T1, GDF11. Described as above. The method, then:
as §13

The target of assay [12] is T6, BMP9 (Homo sapiens, UniProt Q9UK05).
T6 sequence (Q9UK05 320-429): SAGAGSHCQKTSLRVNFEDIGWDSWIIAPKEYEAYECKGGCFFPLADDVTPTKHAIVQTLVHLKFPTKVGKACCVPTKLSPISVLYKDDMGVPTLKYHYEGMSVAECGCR
Described as above. The method, then: as §13

In assay [13] the target is T7, BMP6 (Homo sapiens, UniProt P22004).
T7 sequence (P22004 375-513): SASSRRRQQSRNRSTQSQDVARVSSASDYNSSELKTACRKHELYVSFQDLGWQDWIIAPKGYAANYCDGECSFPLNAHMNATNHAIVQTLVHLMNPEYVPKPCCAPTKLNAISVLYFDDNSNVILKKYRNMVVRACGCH
The description is as above. Here is the method: as §13

For assay [14], the target named is T2, activin A. The assay is described as above. The method, then:
as §13

Assay [15] deals with T8, BMP10 (Homo sapiens, UniProt O95393).
T8 sequence (O95393 317-424): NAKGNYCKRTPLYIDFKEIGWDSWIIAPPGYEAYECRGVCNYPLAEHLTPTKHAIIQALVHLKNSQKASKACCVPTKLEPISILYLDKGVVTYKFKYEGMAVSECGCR
The assay is described as above. Conditions: ligand BMP10, Table 13. Here is the method:
as §13

The target in assay [16] is T4, GDF8. The assay is described as above. The method, then:
as §13

Assay [17] deals with T3, activin B. The description is as above. Conditions: ligand Activin B, Table 13. Here is the method: as §13
Assay [18] has as its target T3, activin B. Put plainly: A-204 Reporter Gene Assay (Example 13). In kind it is cell-based.
From the text: as §9, §10

Assay [19] in a line: In vivo activity of ActRIIA variant with substitution at X17. Conditions: substitution of A for K at X17.
[20] abbreviates: Table 9, cell-based A-204 assay.

B1: ActRIIB(20-134)-hFc: extracellular domain of human ActRIIB (residues 20-134, R64) fused to a human Fc domain with a minimal linker (protein)
chain: GRGEAETRECIYYNANWELERTNQSGLERCEGEQDKRLHCYASWRNSSGTIELVKKGCWLDDFNCYDRQECVATEENPQVYFCCCEGNFCNERFTHLPEAGGPEVTYEPPPTAPTGGGTHTCPPCPAPELLGGPSVFLFPPKPKDTLMISRTPEVTCVVVDVSHEDPEVKFNWYVDGVEVHNAKTKPREEQYNSTYRVVSVLTVLHQDWLNGKEYKCKVSNKALPVPIEKTISKAKGQPREPQVYTLPPSREEMTKNQVSLTCLVKGFYPSDIAVEWESNGQPENNYKTTPPVLDSDGSFFLYSKLTVDKSRWQQGNVFSCSVMHEALHNHYTQKSLSLSPGK
A word on the Kd: it is the constant that tells how readily two partners part at equilibrium. For B1, the Kd in [1] was determined as 0.036 nM; in assay [2], 0.016 nM; in assay [3], 0.012 nM. The “inhibition of activin A signaling” value in assay [4] is on record as “potent inhibitor”. The “Activin Inhibition Activity” value in assay [4] (setting [20]) is recorded as “+++ (Good (wild-type) activity (roughly 1 × 10^−8 KI))”. The “inhibition of GDF8 signaling” value in assay [5] was “potent inhibitor”. Besides, the “inhibition of GDF11 signaling” value in assay [6] is on record as “potent inhibitor”. Also, in [6] (setting [20]), the “GDF11 Inhibition Activity” value is “+++ (Good (wild-type) activity (roughly 1 × 10^−8 KI))”. The entries for the “Koff” value in assay [7], in [8] and in assay [9] were 0.000113 s⁻¹, 0.000159 s⁻¹ and 3.45e-05 s⁻¹, respectively.

B2: ActRIIB-Fc homodimer: ActRIIB-Fc homodimer complex used as comparator in Example 13 (protein)
chain: B1 chain
As to B2, the ka was 1.4 × 10^6 1/MS in assay [10]; 5.0 × 10^7 1/MS in assay [11] (ligand GDF11, Table 13); 1.4 × 10^7 1/MS in [12] (ligand BMP9, Table 13); 3.2 × 10^7 1/MS in [13] (ligand BMP6, Table 13); 1.2 × 10^7 1/MS in [14] (ligand Activin A, Table 13); 2.3 × 10^7 1/MS in assay [15]. Moreover, the ka is reported as 8.3 × 10^5 1/MS in assay [16] (ligand GDF8, Table 13) and 5.1 × 10^6 1/MS in [17]. The kd in assay [10] is 0.0022 s⁻¹; in [11] (ligand GDF11, Table 13), 0.00011 s⁻¹; in assay [12] (ligand BMP9, Table 13), 0.0011 s⁻¹; in assay [13] (ligand BMP6, Table 13), 0.0068 s⁻¹; in [14] (ligand Activin A, Table 13), 0.00023 s⁻¹; in assay [15] it was 0.00026 s⁻¹. Besides, the kd in [16] (ligand GDF8, Table 13) was determined as 0.00023 s⁻¹; in assay [17], 0.0001 s⁻¹. Also, the “GDF11 binding” value in assay [11] (Example 13) was “strong binding”. For the same molecule, the “BMP9 binding” value in assay [12] (Example 13) is “binds strongly”. In [13] (Example 13), the “BMP6 binding” value is recorded as “intermediate-level binding”. Further, the “activin A binding” value in assay [14] (Example 13) is recorded as “strong binding”. The “GDF8 binding” value in [16] (Example 13) was “strong binding”. Besides, in assay [4], the “inhibition of activin A signaling” value is “potent inhibitors”. For the same molecule, in assay [5], the “inhibition of GDF8 signaling” value is on record as “potent inhibitors”. Besides, the “inhibition of GDF11 signaling” value in assay [6] is given as “potent inhibitors”. In addition, the “inhibition of activin B signaling” value in assay [18] is reported as “potent inhibitors”.

B3: SEQ ID NO: 283: ActRIIA variant with alanine (A) substituted for lysine (K) at X17 (protein)
chain: GAILGRSETQECLFYNANWELERTNQTGVERCEGEKDKRLHCYATWRNISGSIEIVAKGCWLDDFNCYDRTDCVETEENPQVYFCCCEGNMCNEKFSYFPEMEVTQPTS
With B3, in [19], the activity in vivo entry is recorded as “reduced activity in vivo”.
